Results published in patent publication US20160074473A1, “EFFECT OF PHOSPHOLIPID COMPOSITION OF RECONSTITUTED HDL ON ITS CHOLESTEROL EFFLUX AND ANTI-INFLAMMATORY PROPERTIES” (Kinemed, Inc., priority 2014, published 2016).
Several values for one entry are separate records, joined by “and”; a condition that tells them apart may be missing. Equal entries are not always repeated. Where two headings read alike, the source gives them in different places.

Key:
[1] = molecular target: T1, BHK cells stably transfected with human ABCG1 (Homo sapiens, UniProt P45844); experiment: Cholesterol efflux assay in vitro, ABCG1; format: cell-based; details: 18 h incubation
T1 construct: expressed in transfected cells; host or cells: BHK cells (stably transfected, mifepristone-inducible)
Description: (§1) Cholesterol efflux studies were performed, as described previously (25, 26). Briefly, BHK-mock and BHK stably transfected cells with human ABCA1 cDNA, ABCG1 cDNA and SR-BI cDNA were labeled for 24 h with 1 μCi/ml of ^3H-cholesterol in minimum essential medium medium plus 10% fetal calf serum. Transporters were induced with 10 nM mifepristone in Dulbecco's modified Eagle's medium (DMEM), containing 0.2 mg/ml of fatty acid-free bovine serum albumin for 18 h. Following induction of the transporters, the cells were washed and test articles were added at 0.1, 2.5, 5, 10, 20 and 40 μM in DMEM-BSA containing mifepristone. The cholesterol efflux by BSA, free 5A peptide, purified HDL, and ApoA-I were used as quality control standards. […] Radioactive counts in media and cell fractions were measured by liquid scintillation counting, and percent cholesterol effluxed was calculated by dividing media count by the sum of media and cell counts. […]
(§2) Cholesterol efflux studies were performed, as described previously (25, 26). […] Radioactive counts in media and cell fractions were measured by liquid scintillation counting, and percent cholesterol effluxed was calculated by dividing media count by the sum of media and cell counts.

[2] = molecular target: T2, BHK cells stably transfected with human SR-BI (Homo sapiens, UniProt Q8WTV0); experiment: Cholesterol efflux assay in vitro, SR-BI; format: cell-based; details: 18 h incubation
T2 construct: expressed in transfected cells; host or cells: BHK cells (stably transfected, mifepristone-inducible)
T2 sequence (Q8WTV0 1-552): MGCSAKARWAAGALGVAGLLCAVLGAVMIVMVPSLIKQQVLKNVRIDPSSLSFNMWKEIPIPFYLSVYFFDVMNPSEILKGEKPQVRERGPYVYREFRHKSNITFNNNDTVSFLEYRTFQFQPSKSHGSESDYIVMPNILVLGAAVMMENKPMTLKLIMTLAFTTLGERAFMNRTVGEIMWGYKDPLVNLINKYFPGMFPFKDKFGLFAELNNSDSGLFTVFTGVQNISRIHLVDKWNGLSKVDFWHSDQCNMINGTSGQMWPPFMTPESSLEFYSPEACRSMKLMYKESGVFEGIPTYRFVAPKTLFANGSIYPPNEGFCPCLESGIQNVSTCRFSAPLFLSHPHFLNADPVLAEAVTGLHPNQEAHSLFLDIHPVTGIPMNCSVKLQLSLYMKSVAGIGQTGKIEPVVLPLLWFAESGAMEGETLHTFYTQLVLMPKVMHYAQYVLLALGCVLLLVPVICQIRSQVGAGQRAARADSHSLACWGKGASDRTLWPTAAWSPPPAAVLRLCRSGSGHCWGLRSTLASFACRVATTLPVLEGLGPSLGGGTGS
Description: as §1, §2

[3] = Alpha-helical content by circular dichroism; format: physicochemical
Description: High-density lipoprotein-like 5A-POPC and 5A-SM complexes were prepared by a co-lyophilization procedure (25, 26). Peptide and phospholipids were dissolved in glacial acetic acid and mixed at 1:1.25 w/w ratio (approximately 1:7 molar ratio) and lyophilized. The powder was hydrated with bicarbonate buffered saline and cycled between 50° C. and room temperature to facilitate 5A-lipid binding. The resulting HDL complexes were analyzed by gel permeation chromatography, with UV detection at 220 nm, using Tosoh TSK gel G3000SWx1 column (Tosoh Bioscience, King of Prussia, Pa.). The HDL hydrodynamic diameters were determined by dynamic light scattering (DLS), using a Zetasizer Nano, Malvern Instruments (Westborough, Mass.). The number and intensity average values were reported. The alpha-helical contents of free and lipid bound 5A peptide were determined by Jasco J715 (Jasco, Easton, Md.) circular dichroism spectropolarimeter. Samples at 0.1 mg/mL concentration were loaded into a quartz cuvette (d=0.2-cm path length), and CD spectra from 185 to 240 nm were recorded at 24° C. […]
High-density lipoprotein-like 5A-POPC and 5A-SM complexes were prepared by a co-lyophilization procedure (25, 26). […] The resulting HDL complexes were analyzed by gel permeation chromatography, with UV detection at 220 nm, using Tosoh TSK gel G3000SWx1 column (Tosoh Bioscience, King of Prussia, Pa.). […]

[4] = cited from earlier work

Substance	cholesterol efflux via ABCG1 [1]	cholesterol efflux via SR-BI [2]	Helicity (%) ([3]; Example 1, 0.1 mg/mL, 24° C.)	alpha-helix content ([3]; Example 2, n=3, mean±SD)	helicity ([4]; associated with lipids)	helicity ([4]; lipid-free state)
DWLKAFYDKVAEKLKEAFPDWAKAAYDKAAEKAKEAA [5A, ApoA-I mimetic, 37-amino acid-long bi-helical peptide]	relatively low cholesterol efflux	relatively low cholesterol efflux	19% and 18.9%	18.8±0.3%	–	–
apoA-I: the main protein in High Density Lipoprotein (HDL)	–	–	–	–	over 80%	about 20%
